Test system: Human dermal fibroblast adult (HDFa) cells
Assay: Cell proliferation of HDFa by crystal violet staining
Format: cell-based
Details: 0.02 or 0.2 ppm, 3 days at 37° C., compared to a control (FIG. 5)
Method: Human dermal fibroblast adult (HDFa) cells, which had been cultured to evaluate the activity of SV82 polypeptide that has been separated and purified in Example 2, were treated with SV82 polypeptide having a concentration of 0, 0.02 ppm or 0.2 ppm, and then incubated for 3 days at a temperature of 37° C. Thereafter, the cells were stained by crystal violate staining to identify whether the cells had proliferated.

B1: SV82 polypeptide (protein)
chain: MKYLLPTAAAGLLLLAAQPAMARATCAGQDQPCKETCDCCGERGECVCGGPCICRQGYFWIAWYKLANCKKLEHHHHHH
modifications: SV82
In the case of B1, the “cell proliferation of HDFa (crystal violet staining)” value is reported as “the more HDFa cells proliferate”.
